Reference: the supplement of paper PMC9170038

System: MS2 coat protein
Assay: apparent KD of MS2 coat protein; designed switch direction (-1 OFF switch, 1 ON switch): -1; higher = weaker reporter binding
In short: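 Three titration conditions were used: no input, 200 uM small-molecule ligand, and an oligonucleotide input. In each, SNAP-549-labelled MS2 coat protein was raised from 0.7 or 1.5 nM, doubling, to 3 µM over designed RNA switches transcribed on Illumina chips by stalled E. coli RNA polymerase. Curve fits of normalised cluster fluorescence gave values whose per-design median over clusters is the apparent KD.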

[1] = input ligand: microRNA oligo, concentration not stated
[2] = Eterna round: R95, input ligand: FMN 200 uM
[3] = Eterna round: R95, input ligand: microRNA oligo, concentration not stated
[4] = Eterna round: R95, input ligand: none

Row | Sequence | apparent KD of MS2 coat protein (input ligand: FMN 200 uM) [nM] | apparent KD of MS2 coat protein [1] [nM] | apparent KD of MS2 coat protein (input ligand: none) [nM] | apparent KD of MS2 coat protein [2] [nM] | apparent KD of MS2 coat protein [3] [nM] | apparent KD of MS2 coat protein [4] [nM]
1 | GCCCGUGGGCAAGGAUAUCCUACGCUGUUCUGGUUCGUGUCUGUCACAUGAGGAUCACCCAUGUGGGAGAAGGUGCACUAGGGU [Design 53] (Eterna round: R96, puzzle: Exclusion NG 2) | 19.7 | 11.1 | 16.9 | – | – | –
2 | AACAUACAUGAGGAUCACCCAUGUGAGGAUAUGAGAGUCAACUCGAGAGAGUUGAUUCUCAGAAGGCACAUAAA [JR_Ex1_Sub065] (Eterna round: R97, puzzle: Exclusion 1) | 226 | – | 67.5 | – | – | –
3 | CCUUUGUCAGGAUAUCAGAACGCGCUCCUAGGGAGCGCAAAUGAGAAGGGACAUGAGGAUCACCCAUGUAAAGA [Erditive] (puzzle: Exclusion 4) | – | – | – | 228 | 48.9 | 59.2
4 | UUUAAUUUAAUUAAGAUCACAUGAGGAUCACCCAUGUAAUUAUAGGAUAUCAGCUCGAAUAGAGCUGAGAAGGAUAAUUACAUA [ExNG3/5-A4] (Eterna round: R96, puzzle: Exclusion NG 3) | – | 67.6 | – | – | – | –
5 | AAAGAACAUGAGGAUCACCCAUGUAAGGAUAUGCAAAGAAAGAAAGAAGAAAGAGAAAGCAGAAGGUACAAGAA [JR_Exclu1_Sub071] (puzzle: Exclusion 1) | – | – | – | 34.4 | 44.1 | 36.8
6 | GUAGAGUCAGGAUAUACGAGAUCGAAAGAUCAAAGAUUCCUACAUGAGGAUCACCCAUGUAGAAGGGACUCUAC [Eli x2 4.123] (Eterna round: R97, puzzle: Exclusion 2) | 16 | – | 15.6 | – | – | –
7 | AAAUCUGAGGAGGAUAUGGUAUAGGAAAUGGUGCCAGAAGGUUUCACAUGAGGAUCACCCAUGUCAAAUAGUGA [EX6 #63] (Eterna round: R97, puzzle: Exclusion 6) | 45.7 | – | 52.5 | – | – | –
8 | CAUUCAGAUGUCAGGAUAUCUGCGGGUAGGGCCGAAGAGAAGGGACAUGAGGAUCACCCAUGUACACUGCUAGA [BmEX4 B.28] (Eterna round: R97, puzzle: Brourd's mod of Exclusion 4) | 22.9 | – | 16 | – | – | –
9 | GGUCGCUUUGUCAGGAUAUCAGGUUAGAUCUGAUUUGAGAAGGGACAUGAGGAUCACCCAUGUGGCGACCUAAA [Eternabot (L1) Solution 42] (Eterna round: R97, puzzle: Brourd's mod of Exclusion 4) | 26.4 | – | 31.7 | – | – | –
10 | ACGGCAUAAGGAUAUGCAAGGUGCUGACUUCCUCCGUCAUUACAUGAGGAUCACCCAUGUAGAAGGUAUGUACC [Eternabot (Original) Solution 9] (Eterna round: R97, puzzle: Exclusion 2) | 18.4 | – | 18.5 | – | – | –
11 | AGUAACUAUCACGAAAGUGAUAGUUACAAUAGCAAGUGAACAUGAGGAUCACCCAUGUCCUCGUUUGCUCGUCUUAU [Sensor 3 - 21] (puzzle: Sensor v3, turn-off variant 2) | – | – | – | 134 | 418 | 136
12 | UGUCAGAUGGUAGGAUAUCCAUAUCGAGUGACCCUUUCAUAACAUGAGGAUCACCCAUGUCGGUGGGAGAAGGGCUGUAUGGUG [salish99_ExNG02_R04_025] (Eterna round: R96, puzzle: Exclusion NG 2) | 26.8 | 19.1 | 24.6 | – | – | –
13 | UUCGUGCAGCUUUGCUGUACGCGUACAUGAGGAUCACCCAUGUAGGAUAUGGUAGGCAAAGCUUACUAGAAGGAUAUAGUGAUC [Mat - Exclusion NG 3 - Mod of JL - D78] (Eterna round: R96, puzzle: Exclusion NG 3) | 66.7 | 41.7 | 64.5 | – | – | –
14 | AUAAAUAAGGAGGAUAUCGAAUCGGAAACGAUUCGAGAAGGCCUAACAUGAGGAUCACCCAUGUUCCUUAAAUA [Mat - Exclusion 6 - Eli Mod - D63] (puzzle: Exclusion 6) | – | – | – | 30.2 | 17.6 | 20.8
15 | CUCCUCAUGGCGCCUAAACACAUGAGGAUCACCCAUGUGCAGGCUUUUUGCCGUCUUAUAAUAAAACCGAGGAUGCG [Vegequ] (puzzle: Sensor v3, turn-off variant 1) | – | – | – | 16.9 | 77.8 | 16.2
16 | AAUAACAGAGGAUAUACUGUUUUAUGUGUUUGUUAUUUUAAACAUGAGGAUCACCCAUGUAGAAGGCUGAAUGA [JMF 57] (puzzle: Exclusion 2) | – | – | – | – | 22 | –
17 | CCGCAAAUGCAGGAUAUCGUAUCGGAUACGAUACGAGAAGGGCAUACAUGAGGAUCACCCAUGUGUCCUAGCGG [Fiskers Ex 6 - 43] (puzzle: Exclusion 6) | – | – | – | – | 16 | –
18 | ACAUGAGGAUCACCCAUGUCCGUCUGGUCUGUCUCGGCUGUCGAGGAUAUAGCUCGGUAUCCGCGCUAGAAGGCGGGAGUCGGG [Aenatbe mod 95] (Eterna round: R96, puzzle: Exclusion NG 3) | 36.1 | 60.9 | 61.9 | – | – | –
19 | GUGUAGAUAGGAUAUACGUGAGUCUAGCGAAGCUAGAUUCUACAUGAGGAUCACCCAUGUAGAAGGGUCUACAC [Fiskers Ex 2 - 27] (puzzle: Exclusion 2) | – | – | – | – | 15.1 | –
20 | UGCAUGCUAGGAUAUACGAAACAUUAGGGUUCUUUGUGUGAACAUGAGGAUCACCCAUGUAGAAGGAGCGUGCU [Mod8 of JL-ex2-2.15 mat747 mod] (puzzle: Exclusion 2) | – | – | – | – | 127 | –
21 | AGAUCAAUCACGAAAGUGAUUGAUCAAAUUAGUUUUUAAACAUGAGGAUCACCCAUGUCCUAGUGGGCUAGUCUUAU [Mat - Sensor v2 - var 2 - Mod - D142] (Eterna round: R96, puzzle: Sensor v2, turn-off variant 2) | 254 | 177 | 249 | – | – | –
22 | UAUUAACAAGCAUGAUCCCACAUGAGGAUCACCCAUGUGCUCGUCUUAUAAGGUACUGUGACGAAAGUCACGGUACC [Sensor 3, v1 - 85] (puzzle: Sensor v3, turn-off variant 1) | – | – | – | 132 | 139 | 144
23 | CAGCGGUGAGGAUAUUCAAGGUGGGACAUGAGGAUCACCCAUGUACAUAGCUGUACGACCGGAGAAGGCGUGGCAU [Eternabot (L1) Solution 67] (Eterna round: R97, puzzle: Exclusion 5) | 86.5 | – | 76.3 | – | – | –
24 | AUUGUAUAGGAAGGAUAUAGAAUAUUAUUUUAACAUGAGGAUCACCCAUGUAACCUUAUGUGUAGCUAGAAGGUCCGUUUAUUA [Title] (Eterna round: R96, puzzle: Exclusion NG 2) | – | 96.5 | – | – | – | –
25 | GCAUGGCGAGGAUAUACAUGAGGAUCACCCAUGUGAGAAGAAUAAGUGAGGAAGAAAAGUAGAAGGCGCUGUGG [Mat - Exclusion 3 - Mod of Salish D63] (puzzle: Exclusion 3) | – | – | – | 128 | 51.5 | 85
